Measurements taken from the supplement of paper PMC11246515.
± gives the standard deviation of the averaged measurements.

Test: total protein half-life in vivo (active degradation + dilution); higher = more stable protein
[1] = E. coli NCM3722 delta-clpP delta-lon delta-hslV, growth: N-lim chemostat, doubling time 6 h
[2] = wild type E. coli NCM3722, growth: C-lim chemostat, doubling time 3 h
[3] = wild type E. coli NCM3722, growth: C-lim chemostat, doubling time 6 h
[4] = E. coli NCM3722 delta-clpP, growth: N-lim chemostat, doubling time 6 h
[5] = E. coli NCM3722 delta-hslV, growth: N-lim chemostat, doubling time 6 h
[6] = E. coli NCM3722 delta-lon, growth: N-lim chemostat, doubling time 6 h
[7] = E. coli NCM3722 delta-smpB, growth: N-lim chemostat, doubling time 6 h
[8] = wild type E. coli NCM3722, growth: C-lim chemostat, doubling time 12 h
[9] = wild type E. coli NCM3722, growth: N-lim chemostat, doubling time 6 h
[10] = wild type E. coli NCM3722, growth: N-lim chemostat, doubling time 12 h
[11] = wild type E. coli NCM3722, growth: P-lim chemostat, doubling time 6 h
[12] = wild type E. coli NCM3722, growth: P-lim chemostat, doubling time 12 h

Sequence | total protein half-life in vivo [1] | total protein half-life in vivo [2] | total protein half-life in vivo [3] | total protein half-life in vivo [4] | total protein half-life in vivo [5] | total protein half-life in vivo [6] | total protein half-life in vivo [7] | total protein half-life in vivo [8] | total protein half-life in vivo [9] | total protein half-life in vivo [10] | total protein half-life in vivo [11] | total protein half-life in vivo [12]
MKKAKILSGVLLLCFSSPLISQAATLDVRGGYRSGSHAYETRLKVSEGWQNGWWASMESNTWNTIHDNKKENAALNDVQVEVNYAIKLDDQWTVRPGMLTHFSSNGTRYGPYVKLSWDATKDLNFGIRYRYDWKAYRQQDLSGDMSRDNVHRWDGYVTYHINSDFTFAWQTTLYSKQNDYRYANHKKWATENAFVLQYHMTPDITPYIEYDYLDRQGVYNGRDNLSENSYRIGVSFKL | 4.55 h | 3.093 ± 0.0091 h | 6.86 ± 1.1 h |  |  |  |  |  |  |  |  | 
MKKGFMLFTLLAAFSGFAQADDAAIQQTLAKMGIKSSDIQPAPVAGMKTVLTNSGVLYITDDGKHIIQGPMYDVSGTAPVNVTNKMLLKQLNALEKEMIVYKAPQEKHVITVFTDITCGYCHKLHEQMADYNALGITVRYLAFPRQGLDSDAEKEMKAIWCAKDKNKAFDDVMAGKSVAPASCDVDIADHYALGVQLGVSGTPAVVLSNGTLVPGYQPPKEMKEFLDEHQKMTSGK [P0AEG6] | 5.41 ± 0.26 h | 3.31 ± 0.52 h | 5.7 ± 0.21 h | 5.77 ± 0.5 h | 6.69 ± 0.64 h | 6.3 ± 0.28 h | 6.38 ± 0.49 h | 10.8 ± 1.6 h | 5.8 ± 0.27 h | 13.1 ± 2 h | 5.93 ± 1.2 h | 13.2 ± 0.74 h
MKKIACLSALAAVLAFTAGTSVAATSTVTGGYAQSDAQGQMNKMGGFNLKYRYEEDNSPLGVIGSFTYTEKSRTASSGDYNKNQYYGITAGPAYRINDWASIYGVVGVGYGKFQTTEYPTYKHDTSDYGFSYGAGLQFNPMENVALDFSYEQSRIRSVDVGTWIAGVGYRF [P0A917] | 7.26 ± 0.62 h | 3.09 ± 0.13 h | 6.04 ± 0.27 h | 6.37 ± 0.47 h | 6.51 ± 0.36 h | 6.76 ± 0.59 h | 5.81 ± 0.095 h | 14.4 ± 0.89 h | 6.09 ± 0.073 h | 12.9 ± 1.1 h | 6.15 ± 0.19 h | 12.9 ± 0.62 h
MKKIAIVGAGPTGIYTLFSLLQQQTPLSISIFEQADEAGVGMPYSDEENSKMMLANIASIEIPPIYCTYLEWLQKQEDSHLQRYGVKKETLHDRQFLPRILLGEYFRDQFLRLVDQARQQKFAVAVYESCQVTDLQITNAGVMLATNQDLPSETFDLAVIATGHVWPDEEEATRTYFPSPWSGLMEAKVDACNVGIMGTSLSGLDAAMAVAIQHGSFIEDDKQHVVFHRDNASEKLNITLLSRTGILPEADFYCPIPYEPLHIVTDQALNAEIQKGEEGLLDRVFRLIVEEIKFADPDWSQRIALESLNVDSFAQAWFAERKQRDPFDWAEKNLQEVERNKREKHTVPWRYVILRLHEAVQEIVPHLNEHDHKRFSKGLARVFIDNYAAIPSESIRRLLALREAGIIHILALGEDYKMEINESRTVLKTEDNSYSFDVFIDARGQRPLKVKDIPFPGLREQLQKTGDEIPDVGEDYTLQQPEDIRGRVAFGALPWLMHDQPFVQGLTACAEIGEAMARAVVKPASRARRRLSFD | 4.97 ± 0.15 h | 3.05 ± 0.16 h | 5.2 ± 0.33 h | 4.38 ± 0.22 h | 4.07 ± 0.29 h | 4.14 ± 0.29 h | 3.75 ± 0.084 h | 8.04 ± 1.7 h | 3.89 ± 0.12 h | 6.3 ± 0.43 h | 5.59 ± 0.087 h | 9.95 ± 0.48 h
MKKIALAGLAGMLLVSASVNAMSISGQAGKEYTNIGVGFGTETTGLALSGNWTHNDDDGDVAGVGLGLNLPLGPLMATVGGKGVYTNPNYGDEGYAAAVGGGLQWKIGNSFRLFGEYYYSPDSLSSGIQSYEEANAGARYTIMRPVSIEAGYRYLNLSGKDGNRDNAVADGPYVGVNASF |  | 2.53 ± 0.17 h |  | > 8 h | > 8 h | 6.46 ± 1.8 h | 5.13 h |  | 4.53 ± 0.26 h |  | 4.72 h | 13 h
MKKIGVAGLQREQIKKTIEATAPGCFEVFIHNDMEAAMKVKSGQLDYYIGACNTGAGAALSIAIAVIGYNKSCTIAKPGIKAKDEHIAKMIAEGKVAFGLSVEHVEHAIPMLINHLK |  | 3.02 h |  |  | 4.29 h |  |  |  |  |  |  | 
MKKIGVILSGCGVYDGSEIHEAVLTLLAISRSGAQAVCFAPDKQQVDVINHLTGEAMTETRNVLIEAARITRGEIRPLAQADAAELDALIVPGGFGAAKNLSNFASLGSECTVDRELKALAQAMHQAGKPLGFMCIAPAMLPKIFDFPLRLTIGTDIDTAEVLEEMGAEHVPCPVDDIVVDEDNKIVTTPAYMLAQNIAEAASGIDKLVSRVLVLAE [P0ABU5] | 5.23 ± 0.27 h |  | 6.9 ± 1.3 h | 4.46 ± 0.24 h | 4.76 ± 0.49 h | 5.05 ± 0.41 h | 4.5 ± 0.09 h | 10.8 ± 0.44 h | 4.79 ± 0.54 h | 7.44 ± 0.33 h | 5.67 ± 0.31 h | 13.4 ± 0.84 h
MKKIIETQRAPGAIGPYVQGVDLGSMVFTSGQIPVCPQTGEIPADVQDQARLSLENVKAIVVAAGLSVGDIIKMTVFITDLNDFATINEVYKQFFDEHQATYPTRSCVQVARLPKDVKLEIEAIAVRSA [P0AGL2] |  | 2.79 h | 5.42 h |  | 4.94 ± 0.13 h | 5.08 ± 0.99 h | 3.9 h | 9.66 ± 1.9 h |  | 7.12 h | 6.2 h | 10.6 ± 0.78 h
MKKILLMLSLLFFTTAGFSEVSDTLVTGGYDKQAMSDAIKHARKETDKFIEVMNKKDADTFAVKAPITDHGRTEHFWLTDVTYSNGMFIGVISNDPGIVTNVEYGQEWKIKKEDISDWMYTRGDKIYGGYTIDPLLVTYPKEEADELRAKLVR | 3.76 h | 2.2 h | 5.15 ± 0.19 h | 4.8 h | 4.78 ± 1.5 h | 5.28 h | 4.01 ± 0.41 h | 6.65 h | 4.65 h | 7.64 h | 3.47 ± 0.23 h | 5.28 ± 1.1 h
MKKIWLALAGLVLAFSASAAQYEDGKQYTTLEKPVAGAPQVLEFFSFFCPHCYQFEEVLHISDNVKKKLPEGVKMTKYHVNFMGGDLGKDLTQAWAVAMALGVEDKVTVPLFEGVQKTQTIRSASDIRDVFINAGIKGEEYDAAWNSFVVKSLVAQQEKAAADVQLRGVPAMFVNGKYQLNPQGMDTSNMDVFVQQYADTVKYLSEKK [P0AEG4] | 5.32 ± 0.12 h | 3.03 ± 0.28 h | 5.32 ± 0.28 h | 5.05 ± 0.36 h | 6.08 ± 0.13 h | 6.83 ± 0.3 h | 6.24 ± 0.57 h | 8.77 ± 2.3 h | 5.73 ± 0.14 h | 11.62 ± 0.096 h | 5.665 ± 0.0088 h | 11.5 ± 1 h
